Assay results taken from PMC7892824 (2021).
Bridges are numbered along the chain shown (N, C = ends). [ ]: non-standard residue; d: D form. The star is where a group is joined. FITC = O=C1OC2(c3ccc(O)cc3Oc3cc(O)ccc32)c2ccc(NC(=S)*)cc21; S5 = C=CCCC[C@](C)(N)C(=O)O; Ahx = NCCCCCC(=O)O

Experiments:
[1] = target: T1, Human full-length (1–192) wild-type BAX (human, UniProt Q07812 1-192); experiment: FP; 0 uM EO
[2] = target: T1, Human full-length (1–192) wild-type BAX; experiment: FP; 1 uM EO (eltrombopag)
[3] = target: T1, Human full-length (1–192) wild-type BAX; experiment: FP; 0.5 uM EO (eltrombopag)

T1 sequence (Q07812 whole entry): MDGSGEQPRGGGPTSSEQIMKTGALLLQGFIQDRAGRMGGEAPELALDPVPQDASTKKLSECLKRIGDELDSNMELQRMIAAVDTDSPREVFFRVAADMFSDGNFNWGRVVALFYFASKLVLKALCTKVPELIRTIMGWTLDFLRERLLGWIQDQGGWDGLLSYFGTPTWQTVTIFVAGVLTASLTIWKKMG

B1: FITC-BIM–SAHB, fluorescently-labeled hydrocarbon-stapled BIM–BH3 peptide (peptide)
chain: {FITC-Ahx}-EIWIAQELR[S5]IGD[S5]FNAYYA-NH2
modifications: staple 10-14
SMILES: CC[C@H](C)[C@H](NC(=O)[C@H](Cc1c[nH]c2ccccc12)NC(=O)[C@@H](NC(=O)[C@H](CCC(=O)O)NC(=O)CCCCCNC(=S)Nc1ccc2c(c1)C(=O)OC21c2ccc(O)cc2Oc2cc(O)ccc21)[C@@H](C)CC)C(=O)N[C@@H](C)C(=O)N[C@@H](CCC(N)=O)C(=O)N[C@@H](CCC(=O)O)C(=O)N[C@@H](CC(C)C)C(=O)N[C@@H](CCCNC(=N)N)C(=O)N[C@@]1(C)CCCC=CCCC[C@@](C)(C(=O)N[C@@H](Cc2ccccc2)C(=O)N[C@@H](CC(N)=O)C(=O)N[C@@H](C)C(=O)N[C@@H](Cc2ccc(O)cc2)C(=O)N[C@@H](Cc2ccc(O)cc2)C(=O)N[C@@H](C)C(N)=O)NC(=O)[C@H](CC(=O)O)NC(=O)CNC(=O)[C@H]([C@@H](C)CC)NC1=O
B1 was tested, and the Kd [1] was 110 nM, the Kd [2] was over 2000 nM and the Kd [3] was 613 nM.
